US20200270125A1 (OMEROS, published 2020)
Where a chain is given by its changes, count along the chain named.

T1: recombinant full-length mouse MASP-3 (mouse)
T1 construct: Entry is with leader; also called mouse full length MASP-3
T1 chain: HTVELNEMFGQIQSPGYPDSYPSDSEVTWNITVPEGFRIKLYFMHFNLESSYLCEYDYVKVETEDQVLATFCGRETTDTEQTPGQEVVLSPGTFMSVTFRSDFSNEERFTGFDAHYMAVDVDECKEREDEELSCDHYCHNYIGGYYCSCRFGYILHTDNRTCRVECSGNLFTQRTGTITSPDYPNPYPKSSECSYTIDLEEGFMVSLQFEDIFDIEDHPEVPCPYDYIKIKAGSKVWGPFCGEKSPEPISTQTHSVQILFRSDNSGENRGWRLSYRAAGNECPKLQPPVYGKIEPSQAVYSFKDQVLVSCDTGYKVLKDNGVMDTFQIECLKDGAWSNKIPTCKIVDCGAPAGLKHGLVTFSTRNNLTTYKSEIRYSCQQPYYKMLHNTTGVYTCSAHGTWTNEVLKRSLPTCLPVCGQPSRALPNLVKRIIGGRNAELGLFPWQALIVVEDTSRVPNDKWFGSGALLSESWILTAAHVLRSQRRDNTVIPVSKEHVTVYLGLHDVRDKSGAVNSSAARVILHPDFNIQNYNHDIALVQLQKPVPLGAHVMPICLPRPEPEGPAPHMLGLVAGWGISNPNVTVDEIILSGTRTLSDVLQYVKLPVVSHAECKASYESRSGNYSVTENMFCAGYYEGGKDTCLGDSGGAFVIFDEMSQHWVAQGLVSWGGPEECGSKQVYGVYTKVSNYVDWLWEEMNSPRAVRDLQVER

T2: human MASP-3 (construct not stated) (human)
T2 construct: also called MASP-3 antigen
T2 chain: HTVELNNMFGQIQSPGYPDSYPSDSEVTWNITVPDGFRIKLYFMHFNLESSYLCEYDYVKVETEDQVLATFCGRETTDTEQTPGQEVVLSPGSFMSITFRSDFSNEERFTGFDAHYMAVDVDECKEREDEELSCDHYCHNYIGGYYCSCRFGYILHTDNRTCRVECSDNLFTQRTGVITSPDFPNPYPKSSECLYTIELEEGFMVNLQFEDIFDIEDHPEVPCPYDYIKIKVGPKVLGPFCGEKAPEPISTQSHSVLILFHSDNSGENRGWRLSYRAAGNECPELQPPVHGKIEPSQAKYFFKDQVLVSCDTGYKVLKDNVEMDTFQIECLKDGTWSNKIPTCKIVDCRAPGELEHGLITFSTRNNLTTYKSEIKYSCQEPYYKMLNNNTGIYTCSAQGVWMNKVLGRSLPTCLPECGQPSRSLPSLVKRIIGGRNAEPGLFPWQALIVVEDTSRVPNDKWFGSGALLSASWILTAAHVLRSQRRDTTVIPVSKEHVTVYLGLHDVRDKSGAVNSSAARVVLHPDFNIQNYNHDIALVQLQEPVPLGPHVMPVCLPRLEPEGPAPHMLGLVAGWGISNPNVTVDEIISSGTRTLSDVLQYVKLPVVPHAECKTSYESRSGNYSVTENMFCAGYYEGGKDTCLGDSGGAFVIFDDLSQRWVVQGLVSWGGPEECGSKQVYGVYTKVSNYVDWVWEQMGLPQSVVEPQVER

T3: recombinant human MASP-1A (S646A, CCP1-CCP2-SP fragment) (human, UniProt P48740 298-699, limits assumed)
T3 chain: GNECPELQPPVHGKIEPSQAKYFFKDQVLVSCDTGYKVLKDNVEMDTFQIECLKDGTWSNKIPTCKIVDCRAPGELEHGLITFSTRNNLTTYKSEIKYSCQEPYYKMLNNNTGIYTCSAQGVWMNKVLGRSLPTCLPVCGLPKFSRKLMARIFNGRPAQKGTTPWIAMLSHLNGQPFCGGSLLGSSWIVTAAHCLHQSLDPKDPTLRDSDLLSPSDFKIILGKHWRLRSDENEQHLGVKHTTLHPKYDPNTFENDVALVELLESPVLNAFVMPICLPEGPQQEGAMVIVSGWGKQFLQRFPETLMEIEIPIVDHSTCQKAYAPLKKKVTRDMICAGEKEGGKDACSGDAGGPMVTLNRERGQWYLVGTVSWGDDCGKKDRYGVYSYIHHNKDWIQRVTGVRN

T4: human MASP-3 CCP1-CCP2-SP fragment (human)
T4 construct: limits of the assay construct are not restated; also called rMASP-3 (CCP1-CCP2-SP)
T4 chain: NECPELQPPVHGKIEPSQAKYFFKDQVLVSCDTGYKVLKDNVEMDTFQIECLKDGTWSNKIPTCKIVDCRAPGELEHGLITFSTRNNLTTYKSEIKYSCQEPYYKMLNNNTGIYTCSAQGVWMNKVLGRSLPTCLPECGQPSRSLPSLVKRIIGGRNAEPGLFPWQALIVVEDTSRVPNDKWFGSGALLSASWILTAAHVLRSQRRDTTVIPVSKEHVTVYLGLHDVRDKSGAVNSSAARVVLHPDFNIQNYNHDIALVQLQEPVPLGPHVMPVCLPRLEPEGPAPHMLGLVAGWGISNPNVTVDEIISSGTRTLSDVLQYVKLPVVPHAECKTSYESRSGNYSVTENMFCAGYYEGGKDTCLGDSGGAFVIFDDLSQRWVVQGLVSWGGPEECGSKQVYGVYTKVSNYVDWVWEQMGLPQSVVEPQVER

B1: MASP-3 mAb 2F2 (mouse-human chimeric IgG4) (antibody, V domains shown)
VH: QVQLKQSGAELVTPGASVKMSCKASGYTFTTYPIEWMKQNHGKSLEWIGNFHPYNDDTKYNEKFKGKATLTVEKSSNTVYLELSRLTSDDSAVYFCARRVYYSYFWFGYWGHGTLVTVSS
VL: DIVMTQSQKFMSTSVGDRVNVTCKASQNVGTHVAWYQQKPGQSPKALIYSASYRYSGVPDRFTGSGSGTDFTLTISNVQSEDLAEYFCQQYNSYPRALTFGAGTKLELKR
B2: MASP-3 mAb 2F5 (mouse-human chimeric IgG4) (antibody, V domains shown)
VH: EVQLQQPGAELVKPGASVKMSCKASGYTFTSYWITWVKQRPGQGLEWIGDIYPGSGSTNYNEKFKSKATLTVDTSSSTAYMQLSSLTSEDSAVYYCARRRYYATAWFAYWGQGTLVTVSS
VL: DIVMTQSQKFMSTSVGDRVSITCKASQNVGTAVAWYQQKPGQSPKLLISSASNRYTGVPDRFTGSGSGTDFTLTISNMQSEDVADYFCQQYNSYPLTFGAGTKLELKR
B3: h4D5_19-1 Fab (VH-19 and VL-1) (Fab, V domains shown)
VH: QVQLVQSGAEVKKPGASVKVSCKASGYTFTTDDINWVRQAPGQGLEWIGWIYPRDDRTKYNDKFKDRATLTVDTSSNTAYMELSSLRSEDTAVYYCSSLEDTYWGQGTLVTVSS
VL: DIVMTQSPDSLAVSLGERATINCKSSQSLLNSRTRKNYLAWYQQKPGQPPKLLIYWASTRESGVPDRFSGSGSGTDFTLTISSLQAEDVAVYYCKQSYNLYTFGQGTKVEIKR
notes: Humanized monovalent Fab; also called h4D5_19-1 parental Fab
B4: h13B1_10-1 Fab (VH-10 and VL-1) (Fab, V domains shown)
VH: QVQLVQSGAEVKKPGASVKVSCKASGYTFTGKWIEWVRQAPGQGLEWIGEILPGTGSTNYNEKFKGRATFTADSSTSTAYMELSSLRSEDTAVYYCLRSEDVWGQGTLVTVSS
VL: B3 VL with L100I, Y101P
notes: Humanized monovalent Fab; also called h13B1_10-1 parental Fab
B5: h4D5_14-1 Fab (VH-14 and VL-1) (Fab, V domains shown)
VH: B3 VH with R67K
VL: B3 VL
notes: Humanized monovalent Fab
B6: h13B1_9-1 Fab (VH-9 and VL-1) (Fab, V domains shown)
VH: B4 VH with N61A, E62Q, K65Q
VL: B3 VL with L100I, Y101P
notes: Humanized monovalent Fab
B7: h10D12_45-21 Fab (VH-45 and VL-21) (Fab, V domains shown)
VH: QIQLVQSGSELKKPGASVKVSCKASGYIFTSYGMSWVRQAPGKGLKWMGWINTYSGVPTYADDFKGRFVFSLDTSVRTPYLQISSLKAEDTAVYFCARGGEAMDYWGQGTLVTVSS
VL: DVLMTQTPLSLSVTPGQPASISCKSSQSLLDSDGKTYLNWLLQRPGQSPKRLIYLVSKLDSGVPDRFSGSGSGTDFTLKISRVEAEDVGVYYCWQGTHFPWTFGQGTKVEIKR
notes: Humanized monovalent Fab; also called h10D12_45-21 parental Fab
B8: h10D12_49-21 Fab (VH-49 and VL-21) (Fab, V domains shown)
VH: B7 VH with V93T
VL: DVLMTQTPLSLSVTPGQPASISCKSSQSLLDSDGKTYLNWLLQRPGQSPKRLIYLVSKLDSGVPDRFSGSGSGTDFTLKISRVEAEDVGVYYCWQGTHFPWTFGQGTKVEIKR
notes: Humanized monovalent Fab
B9: h13B1_10-1-NQ Fab (VH-10 and VL-1-NQ) (Fab, V domains shown)
VH: B4 VH
VL: B3 VL with N31Q, L100I, Y101P
notes: also called 13B1-NQ
B10: h13B1_10-1-ST Fab (VH-10 and VL-1-ST) (Fab, V domains shown)
VH: B4 VH
VL: B3 VL with S32T, L100I, Y101P
notes: also called 13B1-ST
B11: h13B1_10-1-NA Fab (VH-10 and VL-1-NA) (Fab, V domains shown)
VH: B4 VH
VL: B3 VL with N31A, L100I, Y101P
notes: Humanized monovalent Fab; also called 13B1-NA
B12: h10D12-45-21-DE Fab (VH-45 and VL-21-DE) (Fab, V domains shown)
VH: B7 VH
VL: DVLMTQTPLSLSVTPGQPASISCKSSQSLLDSEGKTYLNWLLQRPGQSPKRLIYLVSKLDSGVPDRFSGSGSGTDFTLKISRVEAEDVGVYYCWQGTHFPWTFGQGTKVEIKR
notes: also called 10D12-DE mutant
B13: h10D12-45-21-GA Fab (VH-45 and VL-21-GA) (Fab, V domains shown)
VH: B7 VH
VL: B12 VL with E33D, G34A
notes: Humanized monovalent Fab; also called 10D12-GA mutant

Biological target: T1, recombinant full-length mouse MASP-3
Experiment: sandwich ELISA, full-length mouse MASP-3 captured by αM3-259
Procedure: (§1) The plate was then washed (PBS-T, 0.05%) and the candidate MASP-3 antibodies were added followed by incubation for one hour at room temperature. The plate was washed (PBS-T, 0.05%) and a detection antibody was added (mouse anti-human kappa-HRP, SouthernBiotech #9230-05) for one hour at room temperature. After another wash (PBS-T, 0.05%) the plate was developed (5 minutes) with OPT EIA TMB (BD Biosciences #555214). Absorbance reading at A450 was measured using the Spectramax M5e plate reader.

EC50	Binder
0.105 nM	B1
0.102 nM	B2

Biological target: T2, human MASP-3 (construct not stated)
Experiment: ELISA, monovalent Fab

EC50	Binder
0.079 nM	B3
0.097 nM	B4
0.085 nM	B5
0.101 nM	B6
0.108 nM	B7
0.115 nM	B8

Biological target: T3, recombinant human MASP-1A (S646A, …)
Experiment: ELISA: recombinant MASP-1A (S646A, CCP1-CCP2-SP) coated directly on the plate, A450
Procedure: as §1

Binder	binding result
B1	no binding (tested: about 20 nM (log10 about 1.3))
B2	no binding (tested: about 20 nM (log10 about 1.3))

biological target: T5, recombinant human MASP-2 (CCP1-CCP2-SP fragment) (human, UniProt O00187 298-686, limits assumed); experiment: ELISA: recombinant MASP-2 (CCP1-CCP2-SP) coated directly on the plate, A450
T5 construct: domain: CCP1-CCP2-SP fragment
Procedure: as §1

T5 sequence (O00187 298-686 limits assumed): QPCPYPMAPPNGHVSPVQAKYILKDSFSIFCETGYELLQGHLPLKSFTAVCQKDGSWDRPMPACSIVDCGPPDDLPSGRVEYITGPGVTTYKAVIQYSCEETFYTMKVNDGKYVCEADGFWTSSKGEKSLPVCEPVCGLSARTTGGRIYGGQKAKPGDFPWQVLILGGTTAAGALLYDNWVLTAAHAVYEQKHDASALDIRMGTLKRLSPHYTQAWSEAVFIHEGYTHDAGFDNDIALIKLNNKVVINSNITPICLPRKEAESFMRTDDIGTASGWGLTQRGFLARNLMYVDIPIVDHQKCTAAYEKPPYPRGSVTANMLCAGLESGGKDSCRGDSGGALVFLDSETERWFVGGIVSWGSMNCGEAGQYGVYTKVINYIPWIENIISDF

Binder	binding result
B1	no binding (tested: about 20 nM (log10 about 1.3))
B2	no binding (tested: about 20 nM (log10 about 1.3))

Biological target: T4, human MASP-3 CCP1-CCP2-SP fragment
Experiment: sandwich ELISA, MASP-3 CCP1-CCP2-SP captured by αM3-259
Procedure: as §1

EC50	Binder
0.057 nM	B1
0.073 nM	B2

Biological target: T2, human MASP-3 (construct not stated)
Experiment: not described at this place

binding affinity	Binder
≤ 500 pM	B1
≤ 500 pM	B2

Biological target: T2, human MASP-3 (construct not stated)
Experiment: ELISA, monovalent Fab
Remark: another data set of the same source

EC50	Binder
0.102 nM	B3
0.1 nM	B4
0.138 nM	B9
0.12 nM	B10
0.105 nM	B11
0.108 nM	B7
0.326 nM	B12
0.181 nM	B13

Biological target: T2, human MASP-3 (construct not stated)
Experiment: cell-based or functional assay

Inhibition of Rabbit Erythrocyte Lysis (IC50 nM), 10% factor D-depleted human serum	Binder
0.8 nM	B1
0.9 nM	B2
